Source: patent US20150344570A1 (published 2015)

T1: FcγRIIa R (extracellular domain, His tag at the C terminus) (human, UniProt P12318 34-217)
T1 construct: extracellular domain; Soluble analyte in Biacore; also called FcgRIIa R type; 2aR
T1 sequence (looked up): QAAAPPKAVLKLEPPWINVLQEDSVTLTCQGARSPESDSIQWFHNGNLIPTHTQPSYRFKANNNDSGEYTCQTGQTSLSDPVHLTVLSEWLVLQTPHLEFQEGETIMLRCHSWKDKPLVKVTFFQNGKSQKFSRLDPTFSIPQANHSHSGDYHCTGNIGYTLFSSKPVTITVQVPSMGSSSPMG

B1: GpH7-B3 variant T335_04F/GpL16-k0 (antibody, human IgG1, kappa)
heavy: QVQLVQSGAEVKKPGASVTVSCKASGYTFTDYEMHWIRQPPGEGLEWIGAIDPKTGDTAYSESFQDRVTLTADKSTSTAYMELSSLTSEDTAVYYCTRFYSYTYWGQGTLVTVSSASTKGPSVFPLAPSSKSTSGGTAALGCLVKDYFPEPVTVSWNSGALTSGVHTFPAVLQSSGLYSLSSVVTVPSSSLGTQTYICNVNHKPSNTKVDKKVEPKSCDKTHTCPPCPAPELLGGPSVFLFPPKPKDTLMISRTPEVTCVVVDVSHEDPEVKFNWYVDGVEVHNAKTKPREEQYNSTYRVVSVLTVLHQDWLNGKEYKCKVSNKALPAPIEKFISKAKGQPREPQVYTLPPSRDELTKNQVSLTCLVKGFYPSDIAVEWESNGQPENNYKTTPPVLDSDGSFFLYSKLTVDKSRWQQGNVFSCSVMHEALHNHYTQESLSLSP
light: DIVMTQSPLSLPVTPGEPASISCQASESLVHSNRNTYLHWYLQKPGQSPQLLIYKVSNRFSGVPDRFSGSGSGTDFTLKISRVEAEDVGVYYCSQNTHVPPTFGQGTKVEIERTVAAPSVFIFPPSDEQLKSGTASVVCLLNNFYPREAKVQWKVDNALQSGNSQESVTEQDSKDSTYSLSSTLTLSKADYEKHKVYACEVTHQGLSSPVTKSFNRGEC
notes: homodimerized; also called Ho Ab
B2: GpH7-B3 variant Y296_20W/GpL16-k0 (antibody, human IgG1, kappa)
heavy: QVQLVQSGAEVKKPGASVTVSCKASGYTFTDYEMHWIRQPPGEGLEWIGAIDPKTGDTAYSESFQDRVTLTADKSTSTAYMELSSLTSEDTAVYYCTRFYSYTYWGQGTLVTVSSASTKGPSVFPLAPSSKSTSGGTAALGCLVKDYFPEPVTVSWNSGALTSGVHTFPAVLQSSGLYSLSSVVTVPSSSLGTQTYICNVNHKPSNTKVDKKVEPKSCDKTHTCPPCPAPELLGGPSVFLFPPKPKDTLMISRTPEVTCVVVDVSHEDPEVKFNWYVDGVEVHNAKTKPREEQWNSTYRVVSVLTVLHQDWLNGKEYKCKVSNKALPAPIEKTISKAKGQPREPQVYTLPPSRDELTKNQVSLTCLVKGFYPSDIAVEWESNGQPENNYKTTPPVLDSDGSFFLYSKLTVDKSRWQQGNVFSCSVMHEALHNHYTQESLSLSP
light: B1 light
notes: as for B1
B3: GpH7-B3 variant T335_18N/GpL16-k0 (antibody, human IgG1, kappa)
heavy: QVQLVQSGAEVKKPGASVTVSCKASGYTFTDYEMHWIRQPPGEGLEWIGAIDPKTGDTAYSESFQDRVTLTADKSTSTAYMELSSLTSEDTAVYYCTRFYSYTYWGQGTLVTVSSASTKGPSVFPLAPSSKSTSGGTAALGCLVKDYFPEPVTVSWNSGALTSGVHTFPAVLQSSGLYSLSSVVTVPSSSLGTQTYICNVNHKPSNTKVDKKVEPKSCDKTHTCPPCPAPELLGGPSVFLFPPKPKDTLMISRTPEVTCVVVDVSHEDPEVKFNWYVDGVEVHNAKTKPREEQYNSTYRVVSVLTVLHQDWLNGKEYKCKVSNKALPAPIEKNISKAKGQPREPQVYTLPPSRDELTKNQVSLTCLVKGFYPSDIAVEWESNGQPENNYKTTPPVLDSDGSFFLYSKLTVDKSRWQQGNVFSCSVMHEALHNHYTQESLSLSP
light: B1 light
notes: as for B1
B4: GpH7-B3 variant T335_06M/GpL16-k0 (antibody, human IgG1, kappa)
heavy: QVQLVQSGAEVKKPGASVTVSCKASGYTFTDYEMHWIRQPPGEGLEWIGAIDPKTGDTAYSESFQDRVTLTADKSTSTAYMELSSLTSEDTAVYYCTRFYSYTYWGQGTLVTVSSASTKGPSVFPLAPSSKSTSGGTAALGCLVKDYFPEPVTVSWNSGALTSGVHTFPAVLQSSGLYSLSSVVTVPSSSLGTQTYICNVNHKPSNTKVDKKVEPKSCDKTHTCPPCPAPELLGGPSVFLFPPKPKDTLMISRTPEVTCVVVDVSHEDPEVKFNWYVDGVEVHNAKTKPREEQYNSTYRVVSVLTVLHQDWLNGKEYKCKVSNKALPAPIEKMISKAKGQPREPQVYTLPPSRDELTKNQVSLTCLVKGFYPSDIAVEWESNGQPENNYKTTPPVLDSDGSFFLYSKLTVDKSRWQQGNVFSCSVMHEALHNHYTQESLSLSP
light: B1 light
notes: as for B1
B5: GpH7-B3 variant Y300_04F/GpL16-k0 (antibody, human IgG1, kappa)
heavy: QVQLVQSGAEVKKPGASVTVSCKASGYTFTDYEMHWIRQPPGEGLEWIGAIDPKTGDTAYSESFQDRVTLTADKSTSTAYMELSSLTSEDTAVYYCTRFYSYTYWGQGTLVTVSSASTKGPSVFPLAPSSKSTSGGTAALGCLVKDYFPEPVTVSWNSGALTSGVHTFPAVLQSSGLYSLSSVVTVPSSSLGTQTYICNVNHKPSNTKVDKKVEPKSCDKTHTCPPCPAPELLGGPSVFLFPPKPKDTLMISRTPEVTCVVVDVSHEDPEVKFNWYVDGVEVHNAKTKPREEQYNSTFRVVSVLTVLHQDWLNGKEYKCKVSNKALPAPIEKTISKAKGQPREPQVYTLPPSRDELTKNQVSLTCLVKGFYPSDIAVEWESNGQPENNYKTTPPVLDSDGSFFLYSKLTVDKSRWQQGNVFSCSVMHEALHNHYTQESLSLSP
light: B1 light
notes: as for B1
B6: GpH7-B3 variant T335_20W/GpL16-k0 (antibody, human IgG1, kappa)
heavy: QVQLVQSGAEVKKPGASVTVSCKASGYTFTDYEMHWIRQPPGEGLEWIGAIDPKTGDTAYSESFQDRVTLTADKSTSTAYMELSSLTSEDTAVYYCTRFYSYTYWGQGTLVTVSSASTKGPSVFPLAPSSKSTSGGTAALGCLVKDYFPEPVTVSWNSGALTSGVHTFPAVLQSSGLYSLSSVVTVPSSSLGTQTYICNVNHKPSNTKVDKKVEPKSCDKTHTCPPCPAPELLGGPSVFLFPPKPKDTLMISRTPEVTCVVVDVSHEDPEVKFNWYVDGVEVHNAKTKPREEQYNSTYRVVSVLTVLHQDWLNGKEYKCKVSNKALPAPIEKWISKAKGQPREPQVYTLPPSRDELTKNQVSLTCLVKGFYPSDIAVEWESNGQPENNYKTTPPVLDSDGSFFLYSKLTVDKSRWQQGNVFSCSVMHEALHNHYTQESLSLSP
light: B1 light
notes: as for B1
B7: GpH7-B3 variant T335_09D/GpL16-k0 (antibody, human IgG1, kappa)
heavy: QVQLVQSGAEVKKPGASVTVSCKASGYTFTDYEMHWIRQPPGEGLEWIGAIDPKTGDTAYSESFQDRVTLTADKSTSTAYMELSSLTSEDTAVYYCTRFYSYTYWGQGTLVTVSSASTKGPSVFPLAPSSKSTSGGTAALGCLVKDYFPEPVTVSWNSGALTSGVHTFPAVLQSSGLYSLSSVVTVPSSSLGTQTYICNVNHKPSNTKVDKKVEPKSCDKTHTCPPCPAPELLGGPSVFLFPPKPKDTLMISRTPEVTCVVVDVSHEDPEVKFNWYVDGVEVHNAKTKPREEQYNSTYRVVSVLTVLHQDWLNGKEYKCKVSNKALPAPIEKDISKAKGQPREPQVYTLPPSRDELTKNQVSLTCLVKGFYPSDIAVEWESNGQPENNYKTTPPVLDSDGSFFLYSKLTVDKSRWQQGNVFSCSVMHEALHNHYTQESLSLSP
light: B1 light
notes: as for B1
B8: GpH7-B3 variant T335_16H/GpL16-k0 (antibody, human IgG1, kappa)
heavy: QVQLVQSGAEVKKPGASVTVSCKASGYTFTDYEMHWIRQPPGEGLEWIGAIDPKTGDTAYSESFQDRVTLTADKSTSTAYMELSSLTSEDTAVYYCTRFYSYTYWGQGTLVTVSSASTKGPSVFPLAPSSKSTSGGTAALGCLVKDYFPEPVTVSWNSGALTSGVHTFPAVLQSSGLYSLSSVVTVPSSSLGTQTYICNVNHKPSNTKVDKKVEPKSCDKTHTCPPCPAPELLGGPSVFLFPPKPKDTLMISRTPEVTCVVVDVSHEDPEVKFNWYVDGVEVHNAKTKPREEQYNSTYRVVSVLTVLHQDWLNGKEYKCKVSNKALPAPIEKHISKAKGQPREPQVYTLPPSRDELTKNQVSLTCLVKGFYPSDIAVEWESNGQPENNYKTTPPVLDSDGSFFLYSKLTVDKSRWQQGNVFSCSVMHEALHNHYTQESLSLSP
light: B1 light
notes: as for B1
B9: GpH7-B3 variant V266_06M/GpL16-k0 (antibody, human IgG1, kappa)
heavy: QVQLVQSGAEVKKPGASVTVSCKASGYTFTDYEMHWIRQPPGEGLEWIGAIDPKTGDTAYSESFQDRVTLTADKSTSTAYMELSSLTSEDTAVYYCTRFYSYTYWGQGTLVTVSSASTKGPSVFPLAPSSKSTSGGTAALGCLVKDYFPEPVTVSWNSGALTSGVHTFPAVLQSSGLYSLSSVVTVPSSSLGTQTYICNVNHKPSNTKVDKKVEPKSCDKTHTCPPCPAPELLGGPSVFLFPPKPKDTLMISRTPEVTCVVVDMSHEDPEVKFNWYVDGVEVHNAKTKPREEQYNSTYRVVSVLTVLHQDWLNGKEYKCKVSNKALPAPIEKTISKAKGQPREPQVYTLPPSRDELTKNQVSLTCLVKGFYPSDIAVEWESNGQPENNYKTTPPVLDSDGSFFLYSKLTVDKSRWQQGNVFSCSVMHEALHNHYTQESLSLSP
light: B1 light
notes: as for B1
B10: GpH7-B3 variant T335_19Q/GpL16-k0 (antibody, human IgG1, kappa)
heavy: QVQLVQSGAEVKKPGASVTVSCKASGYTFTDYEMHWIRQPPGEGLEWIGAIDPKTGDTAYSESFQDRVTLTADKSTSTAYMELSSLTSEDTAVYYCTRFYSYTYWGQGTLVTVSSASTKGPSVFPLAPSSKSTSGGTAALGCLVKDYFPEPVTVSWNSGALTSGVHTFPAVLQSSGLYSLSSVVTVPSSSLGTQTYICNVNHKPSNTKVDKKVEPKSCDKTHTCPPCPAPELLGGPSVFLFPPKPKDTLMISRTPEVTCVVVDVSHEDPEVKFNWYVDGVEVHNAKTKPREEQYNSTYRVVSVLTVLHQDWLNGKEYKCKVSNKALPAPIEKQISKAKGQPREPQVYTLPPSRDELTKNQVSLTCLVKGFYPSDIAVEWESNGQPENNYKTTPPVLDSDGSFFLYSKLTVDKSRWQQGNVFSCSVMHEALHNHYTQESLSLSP
light: B1 light
notes: as for B1
B11: GpH7-B3 variant T335_08L/GpL16-k0 (antibody, human IgG1, kappa)
heavy: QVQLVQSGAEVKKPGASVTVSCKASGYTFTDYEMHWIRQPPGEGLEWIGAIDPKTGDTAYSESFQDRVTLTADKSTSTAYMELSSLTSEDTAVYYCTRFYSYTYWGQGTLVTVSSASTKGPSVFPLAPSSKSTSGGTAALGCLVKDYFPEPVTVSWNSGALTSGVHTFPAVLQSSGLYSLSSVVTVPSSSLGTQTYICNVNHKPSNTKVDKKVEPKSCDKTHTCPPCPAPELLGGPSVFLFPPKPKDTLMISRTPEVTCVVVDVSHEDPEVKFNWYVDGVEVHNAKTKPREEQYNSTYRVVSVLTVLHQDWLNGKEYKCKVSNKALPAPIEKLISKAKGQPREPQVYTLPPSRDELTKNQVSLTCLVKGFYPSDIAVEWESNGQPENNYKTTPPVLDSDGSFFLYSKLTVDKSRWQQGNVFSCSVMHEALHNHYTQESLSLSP
light: B1 light
notes: as for B1
B12: GpH7-A5/GpH7-B3 variant T335_15Y/GpL16-k0 (antibody, human IgG1, kappa)
heavy 1: not shown
heavy 2: not shown
light: B1 light
notes: heterodimerized; also called He Ab
B13: GpH7-A5/GpH7-B3 variant L328_15Y/GpL16-k0 (antibody, human IgG1, kappa)
heavy 1: not shown
heavy 2: not shown
light: B1 light
notes: as for B12
B14: GpH7-A5/GpH7-B3 variant T335_06M/GpL16-k0 (antibody, human IgG1, kappa)
heavy 1: not shown
heavy 2: not shown
light: B1 light
notes: as for B12
B15: GpH7-A5/GpH7-B3 variant K334_18N/GpL16-k0 (antibody, human IgG1, kappa)
heavy 1: not shown
heavy 2: not shown
light: B1 light
notes: as for B12
B16: GpH7-A5/GpH7-B3 variant L328_07I/GpL16-k0 (antibody, human IgG1, kappa)
heavy 1: not shown
heavy 2: not shown
light: B1 light
notes: as for B12
B17: GpH7-A5/GpH7-B3 variant T335_09D/GpL16-k0 (antibody, human IgG1, kappa)
heavy 1: not shown
heavy 2: not shown
light: B1 light
notes: as for B12
B18: GpH7-A5/GpH7-B3 variant T335_08L/GpL16-k0 (antibody, human IgG1, kappa)
heavy 1: not shown
heavy 2: not shown
light: B1 light
notes: as for B12
B19: GpH7-A5/GpH7-B3 variant K326_06M/GpL16-k0 (antibody, human IgG1, kappa)
heavy 1: not shown
heavy 2: not shown
light: B1 light
notes: as for B12
B20: GpH7-A5/GpH7-B3 variant K334_03V/GpL16-k0 (antibody, human IgG1, kappa)
heavy 1: not shown
heavy 2: not shown
light: B1 light
notes: as for B12
B21: GpH7-A5/GpH7-B3 variant P271_01G/GpL16-k0 (antibody, human IgG1, kappa)
heavy 1: not shown
heavy 2: not shown
light: B1 light
notes: as for B12
B22: GpH7-A5/GpH7-B3 variant T335_18N/GpL16-k0 (antibody, human IgG1, kappa)
heavy 1: not shown
heavy 2: not shown
light: B1 light
notes: as for B12
B23: GpH7-A5/GpH7-B3 variant T335_16H/GpL16-k0 (antibody, human IgG1, kappa)
heavy 1: not shown
heavy 2: not shown
light: B1 light
notes: as for B12
B24: GpH7-A5/GpH7-B3 variant K334_15Y/GpL16-k0 (antibody, human IgG1, kappa)
heavy 1: not shown
heavy 2: not shown
light: B1 light
notes: as for B12
B25: GpH7-A5/GpH7-B3 variant T335_20W/GpL16-k0 (antibody, human IgG1, kappa)
heavy 1: not shown
heavy 2: not shown
light: B1 light
notes: as for B12
B26: GpH7-A5/GpH7-B3 variant S239_01G/GpL16-k0 (antibody, human IgG1, kappa)
heavy 1: not shown
heavy 2: not shown
light: B1 light
notes: as for B12
B27: GpH7-A5/GpH7-B3 variant I332_10E/GpL16-k0 (antibody, human IgG1, kappa)
heavy 1: not shown
heavy 2: not shown
light: B1 light
notes: as for B12
B28: GpH7-A5/GpH7-B3 variant K326_19Q/GpL16-k0 (antibody, human IgG1, kappa)
heavy 1: not shown
heavy 2: not shown
light: B1 light
notes: as for B12
B29: GpH7-A5/GpH7-B3 variant H268_10E/GpL16-k0 (antibody, human IgG1, kappa)
heavy 1: not shown
heavy 2: not shown
light: B1 light
notes: as for B12
B30: GpH7-A5/GpH7-B3 variant T335_04F/GpL16-k0 (antibody, human IgG1, kappa)
heavy 1: not shown
heavy 2: not shown
light: B1 light
notes: as for B12
B31: GpH7-A5/GpH7-B3 variant I332_09D/GpL16-k0 (antibody, human IgG1, kappa)
heavy 1: not shown
heavy 2: not shown
light: B1 light
notes: as for B12
B32: GpH7-A5/GpH7-B3 variant K334_16H/GpL16-k0 (antibody, human IgG1, kappa)
heavy 1: not shown
heavy 2: not shown
light: B1 light
notes: as for B12
B33: GpH7-A5/GpH7-B3 variant S239_09D/GpL16-k0 (antibody, human IgG1, kappa)
heavy 1: not shown
heavy 2: not shown
light: B1 light
notes: as for B12
B34: GpH7-A5/GpH7-B3 variant K326_14T/GpL16-k0 (antibody, human IgG1, kappa)
heavy 1: not shown
heavy 2: not shown
light: B1 light
notes: as for B12
B35: GpH7-A5/GpH7-B3 variant I332_15Y/GpL16-k0 (antibody, human IgG1, kappa)
heavy 1: not shown
heavy 2: not shown
light: B1 light
notes: as for B12
B36: GpH7-A5/GpH7-B3 variant H268_09D/GpL16-k0 (antibody, human IgG1, kappa)
heavy 1: not shown
heavy 2: not shown
light: B1 light
notes: as for B12
B37: GpH7-A5/GpH7-B3 variant K334_07I/GpL16-k0 (antibody, human IgG1, kappa)
heavy 1: not shown
heavy 2: not shown
light: B1 light
notes: as for B12
B38: GpH7-A5/GpH7-B3 variant S337_14T/GpL16-k0 (antibody, human IgG1, kappa)
heavy 1: not shown
heavy 2: not shown
light: B1 light
notes: as for B12
B39: GpH7-A5/GpH7-B3 variant S267_07I/GpL16-k0 (antibody, human IgG1, kappa)
heavy 1: not shown
heavy 2: not shown
light: B1 light
notes: as for B12
B40: GpH7-A5/GpH7-B3 variant G236_09D/GpL16-k0 (antibody, human IgG1, kappa)
heavy 1: not shown
heavy 2: not shown
light: B1 light
notes: as for B12
B41: GpH7-A5/GpH7-B3 variant S267_02A/GpL16-k0 (antibody, human IgG1, kappa)
heavy 1: not shown
heavy 2: not shown
light: B1 light
notes: as for B12
B42: GpH7-A5/GpH7-B3 variant T335_19Q/GpL16-k0 (antibody, human IgG1, kappa)
heavy 1: not shown
heavy 2: not shown
light: B1 light
notes: as for B12
B43: GpH7-A5/GpH7-B3 variant P238_08L/GpL16-k0 (antibody, human IgG1, kappa)
heavy 1: not shown
heavy 2: not shown
light: B1 light
notes: as for B12
B44: GpH7-A5/GpH7-B3 variant L328_06M/GpL16-k0 (antibody, human IgG1, kappa)
heavy 1: not shown
heavy 2: not shown
light: B1 light
notes: as for B12
B45: GpH7-A5/GpH7-B3 variant K326_10E/GpL16-k0 (antibody, human IgG1, kappa)
heavy 1: not shown
heavy 2: not shown
light: B1 light
notes: as for B12
B46: GpH7-A5/GpH7-B3 variant K326_16H/GpL16-k0 (antibody, human IgG1, kappa)
heavy 1: not shown
heavy 2: not shown
light: B1 light
notes: as for B12
B47: GpH7-A5/GpH7-B3 variant G236_10E/GpL16-k0 (antibody, human IgG1, kappa)
heavy 1: not shown
heavy 2: not shown
light: B1 light
notes: as for B12
B48: GpH7-A5/GpH7-B3 variant H268_13S/GpL16-k0 (antibody, human IgG1, kappa)
heavy 1: not shown
heavy 2: not shown
light: B1 light
notes: as for B12
B49: GpH7-A5/GpH7-B3 variant L328_04F/GpL16-k0 (antibody, human IgG1, kappa)
heavy 1: not shown
heavy 2: not shown
light: B1 light
notes: as for B12
B50: GpH7-A5/GpH7-B3 variant K326_09D/GpL16-k0 (antibody, human IgG1, kappa)
heavy 1: not shown
heavy 2: not shown
light: B1 light
notes: as for B12
B51: GpH7-A5/GpH7-B3 variant H268_18N/GpL16-k0 (antibody, human IgG1, kappa)
heavy 1: not shown
heavy 2: not shown
light: B1 light
notes: as for B12
B52: GpH7-A5/GpH7-B3 variant K334_14T/GpL16-k0 (antibody, human IgG1, kappa)
heavy 1: not shown
heavy 2: not shown
light: B1 light
notes: as for B12
B53: GpH7-A5/GpH7-B3 variant L328_03V/GpL16-k0 (antibody, human IgG1, kappa)
heavy 1: not shown
heavy 2: not shown
light: B1 light
notes: as for B12
B54: GpH7-A5/GpH7-B3 variant S267_01G/GpL16-k0 (antibody, human IgG1, kappa)
heavy 1: not shown
heavy 2: not shown
light: B1 light
notes: as for B12
B55: GpH7-A5/GpH7-B3 variant I332_04F/GpL16-k0 (antibody, human IgG1, kappa)
heavy 1: not shown
heavy 2: not shown
light: B1 light
notes: as for B12

The binders below were run against T1, FcγRIIa R (extracellular domain, His …) (assay: SPR (Biacore), relative binding, control GpH7-B3/GpL16-k0 = 100).
Method: (§1) Analysis of interaction between objective antibody and the FcγR was carried out using Biacore T100 (GE Healthcare). HBS-EP+ (GE Healthcare) was used as the running buffer, and the measurement temperature was set to 25° C. Chips produced by immobilizing the antigen peptide by the amine coupling method to a Series S Sencor Chip CM5 (GE Healthcare), or alternatively, chips produced by allowing preliminarily biotinylated antigen peptides to interact with and immobilize onto a Series S Sensor Chip SA (certified) (GE Healthcare) were used. Antibodies of interest were captured onto an antigen peptide-immobilized chip, and allowed to interact to each FcγR diluted with running buffer. To regenerate and repeatedly use the chip, the antibodies captured on the chip were washed off by reacting 10 mM glycine-HCl, pH 1.5.

| Ho/Con_2aR | Binder |
| --- | --- |
| 108 % of control | B1 |
| 107 % of control | B2 |
| 100 % of control | B3 |
| 107 % of control | B4 |
| 109 % of control | B5 |
| 101 % of control | B6 |
| 113 % of control | B7 |
| 102 % of control | B8 |
| 146 % of control | B9 |
| 102 % of control | B10 |
| 108 % of control | B11 |

The binders below were run against T1, FcγRIIa R (extracellular domain, His …) (assay: SPR (Biacore), relative binding, control GpH7-A5/GpH7-B3/GpL16-k0 = 100).
Method: as §1

| He/Con_2aR | Binder |
| --- | --- |
| 111 % of control | B12 |
| 136 % of control | B13 |
| 105 % of control | B14 |
| 112 % of control | B15 |
| 124 % of control | B16 |
| 110 % of control | B17 |
| 108 % of control | B18 |
| 138 % of control | B19 |
| 117 % of control | B20 |
| 144 % of control | B21 |
| 106 % of control | B22 |
| 108 % of control | B23 |
| 108 % of control | B24 |
| 109 % of control | B25 |
| 128 % of control | B26 |
| 114 % of control | B27 |
| 129 % of control | B28 |
| 148 % of control | B29 |
| 108 % of control | B30 |
| 119 % of control | B31 |
| 109 % of control | B32 |
| 137 % of control | B33 |

| He/Con_2aR | Binder |
| --- | --- |
| 134 % of control | B34 |
| 110 % of control | B35 |
| 149 % of control | B36 |
| 114 % of control | B37 |
| 110 % of control | B38 |
| 111 % of control | B39 |
| 106 % of control | B40 |
| 155 % of control | B41 |
| 106 % of control | B42 |
| 140 % of control | B43 |
| 115 % of control | B44 |
| 148 % of control | B45 |
| 120 % of control | B46 |
| 125 % of control | B47 |
| 127 % of control | B48 |
| 138 % of control | B49 |
| 148 % of control | B50 |
| 128 % of control | B51 |
| 112 % of control | B52 |
| 116 % of control | B53 |
| 113 % of control | B54 |
| 105 % of control | B55 |
